These results are taken from publication PMC3870252, “The N-Terminal Membrane-Spanning Domain of the Escherichia coli DNA Translocase FtsK Hexamerizes at Midcell” (mBio, 2013).

Data set [1] deals with TtFtsKN (purified N-terminal domain of FtsK from Thermoanaerobacter tengcongensis) (Thermoanaerobacter tengcongensis). Nature of the data set: SEC-MALS; Superdex S-200 column, in DDM detergent; masses after subtraction of the micelle contribution; hexamer and monomer peaks. For orientation: SEC sorts molecules by how far they enter the pores of the column.
Data set [2] shares this target. Description: oligomer bands on SDS-PAGE of SEC fractions; fractions of the Superdex S-200 second purification step at a lower DDM detergent concentration, 12% Coomassie blue-stained SDS-PAGE.
The target in data set [3] is EcFtsKN (purified N-terminal domain of FtsK from E. coli) (E. coli). The data set is described as above.
Data set [4] deals with the molecule itself. Nature of the data set: quantitative live-cell fluorescence stoichiometry (widefield microscopy); live E. coli in minimal glycerol medium; integrated midcell fluorescence divided by the intensity of a single YPet fluorophore; periodicity from the power spectrum of measured stoichiometries.

Where “and” joins values, the source holds several entries; their conditions need not be identical. Identical values can stand only once.

On to “TtFtsKN (purified N-terminal domain of FtsK from Thermoanaerobacter tengcongensis) (domain or fragment)”, for which the stoichiometry N is 6 in data set [1]; 2 and 6 in data set [2].

For the molecule “EcFtsKN (purified N-terminal domain of FtsK from E. coli) (domain or fragment)”, the stoichiometry N in data set [3] was 2 and 6.

B1: FtsKΔC-YPet (FtsK derivative lacking the C-terminal domain, amino acids 1 to 818) (domain or fragment, E. coli, UniProt P46889 1-818, looked up)
chain: MSQEYIEDKEVTLTKLSSGRRLLEALLILIVLFAVWLMAALLSFNPSDPSWSQTAWHEPIHNLGGMPGAWLADTLFFIFGVMAYTIPVIIVGGCWFAWRHQSSDEYIDYFAVSLRIIGVLALILTSCGLAAINADDIWYFASGGVIGSLLSTTLQPLLHSSGGTIALLCVWAAGLTLFTGWSWVTIAEKLGGWILNILTFASNRTRRDDTWVDEDEYEDDEEYEDENHGKQHESRRARILRGALARRKRLAEKFINPMGRQTDAALFSGKRMDDDEEITYTARGVAADPDDVLFSGNRATQPEYDEYDPLLNGAPITEPVAVAAAATTATQSWAAPVEPVTQTPPVASVDVPPAQPTVAWQPVPGPQTGEPVIAPAPEGYPQQSQYAQPAVQYNEPLQQPVQPQQPYYAPAAEQPAQQPYYAPAPEQPVAGNAWQAEEQQSTFAPQSTYQTEQTYQQPAAQEPLYQQPQPVEQQPVVEPEPVVEETKPARPPLYYFEEVEEKRAREREQLAAWYQPIPEPVKEPEPIKSSLKAPSVAAVPPVEAAAAVSPLASGVKKATLATGAAATVAAPVFSLANSGGPRPQVKEGIGPQLPRPKRIRVPTRRELASYGIKLPSQRAAEEKAREAQRNQYDSGDQYNDDEIDAMQQDELARQFAQTQQQRYGEQYQHDVPVNAEDADAAAEAELARQFAQTQQQRYSGEQPAGANPFSLDDFEFSPMKALLDDGPHEPLFTPIVEPVQQPQQPVAPQQQYQQPQQPVPPQPQYQQPQQPVAPQPQYQQPQQPVAPQQQYQQPQQPVAPQQQYQQPQQPVAPQPQDT
notes: FtsK, Escherichia coli, amino acids 1 to 818 (lacks the C-terminal translocase domain); source: expressed from the endogenous chromosomal locus, E. coli K-12 AB1157 derivative, in live cells; not shown: YPet, C-terminal, kept
Turning to B1, the “stoichiometry N” value in data set [4] amounted to 6.05.

B2: FtsK-YPet (wild-type E. coli FtsK with a C-terminal YPet fusion) (natural protein, UniProt P46889 1-1329, looked up)
chain: MSQEYIEDKEVTLTKLSSGRRLLEALLILIVLFAVWLMAALLSFNPSDPSWSQTAWHEPIHNLGGMPGAWLADTLFFIFGVMAYTIPVIIVGGCWFAWRHQSSDEYIDYFAVSLRIIGVLALILTSCGLAAINADDIWYFASGGVIGSLLSTTLQPLLHSSGGTIALLCVWAAGLTLFTGWSWVTIAEKLGGWILNILTFASNRTRRDDTWVDEDEYEDDEEYEDENHGKQHESRRARILRGALARRKRLAEKFINPMGRQTDAALFSGKRMDDDEEITYTARGVAADPDDVLFSGNRATQPEYDEYDPLLNGAPITEPVAVAAAATTATQSWAAPVEPVTQTPPVASVDVPPAQPTVAWQPVPGPQTGEPVIAPAPEGYPQQSQYAQPAVQYNEPLQQPVQPQQPYYAPAAEQPAQQPYYAPAPEQPVAGNAWQAEEQQSTFAPQSTYQTEQTYQQPAAQEPLYQQPQPVEQQPVVEPEPVVEETKPARPPLYYFEEVEEKRAREREQLAAWYQPIPEPVKEPEPIKSSLKAPSVAAVPPVEAAAAVSPLASGVKKATLATGAAATVAAPVFSLANSGGPRPQVKEGIGPQLPRPKRIRVPTRRELASYGIKLPSQRAAEEKAREAQRNQYDSGDQYNDDEIDAMQQDELARQFAQTQQQRYGEQYQHDVPVNAEDADAAAEAELARQFAQTQQQRYSGEQPAGANPFSLDDFEFSPMKALLDDGPHEPLFTPIVEPVQQPQQPVAPQQQYQQPQQPVPPQPQYQQPQQPVAPQPQYQQPQQPVAPQQQYQQPQQPVAPQQQYQQPQQPVAPQPQDTLLHPLLMRNGDSRPLHKPTTPLPSLDLLTPPPSEVEPVDTFALEQMARLVEARLADFRIKADVVNYSPGPVITRFELNLAPGVKAARISNLSRDLARSLSTVAVRVVEVIPGKPYVGLELPNKKRQTVYLREVLDNAKFRDNPSPLTVVLGKDIAGEPVVADLAKMPHLLVAGTTGSGKSVGVNAMILSMLYKAQPEDVRFIMIDPKMLELSVYEGIPHLLTEVVTDMKDAANALRWCVNEMERRYKLMSALGVRNLAGYNEKIAEADRMMRPIPDPYWKPGDSMDAQHPVLKKEPYIVVLVDEFADLMMTVGKKVEELIARLAQKARAAGIHLVLATQRPSVDVITGLIKANIPTRIAFTVSSKIDSRTILDQAGAESLLGMGDMLYSGPNSTLPVRVHGAFVRDQEVHAVVQDWKARGRPQYVDGITSDSESEGGAGGFDGAEELDPLFDQAVQFVTEKRKASISGVQRQFRIGYNRAARIIEQMEAQGIVSEQGHNGNREVLAPPPFD
notes: FtsK, DNA translocase, Escherichia coli; wild-type protein, 1,329 amino acids, integral membrane protein; also called wild-type FtsK; source: expressed from the endogenous wild-type chromosomal locus, E. coli K-12 AB1157 derivative, in live cells; not shown: YPet, C-terminal, kept
With B2, in data set [4], the “stoichiometry N” value was found to be 6.12.

B3: FtsKN-YPet (N-terminal domain of E. coli FtsK, amino acids 1 to 210) (domain or fragment, UniProt P46889 1-210, looked up)
chain: MSQEYIEDKEVTLTKLSSGRRLLEALLILIVLFAVWLMAALLSFNPSDPSWSQTAWHEPIHNLGGMPGAWLADTLFFIFGVMAYTIPVIIVGGCWFAWRHQSSDEYIDYFAVSLRIIGVLALILTSCGLAAINADDIWYFASGGVIGSLLSTTLQPLLHSSGGTIALLCVWAAGLTLFTGWSWVTIAEKLGGWILNILTFASNRTRRDDT
notes: FtsK, Escherichia coli, N-terminal membrane-spanning domain, amino acids 1 to 210; source: expressed from the endogenous chromosomal locus, E. coli K-12 AB1157 derivative, in live cells; not shown: YPet, C-terminal, kept
For B3, in data set [4], the “stoichiometry N” value came to 6.

The term stoichiometry N denotes the number of molecules, sites or subunits per partner or assembly.
